Results: paper PMC11510292, “Heterobivalent Dual-Target Peptide for Integrin-αvβ3 and Neuropeptide Y Receptors on Breast Tumor” (Pharmaceuticals, 2024)
Where two headings read alike, the source gives them in different places.

What was measured:
[1] = Biodistribution in SCID mice bearing MCF-7 xenografts; assay type: in vivo; conditions: female, mouse, total radioactivity; for tissue uptake at 1 h / tissue uptake per volume at 1 h: SCID, MCF-7 model, 60 min p.i., 0.1 mL/18.5 MBq IV; for tissue uptake per volume at 1 h: whole blood
Protocol: (§1) To evaluate the uptake of the radiolabeled peptide by breast tumors, additional biodistribution studies were performed in SCID mice bearing MCF-7 and MDA-MB-231 xenografts (Table 2). […] The tumor uptakes of the radiolabeled conjugate were 9.30 ± 3.25% for MCF-7 and 4.93 ± 1.01% for MDA-MB-231 (Figure 5). The tumor-to-muscle ratios were 5.65 ± 0.94 for the MCF-7 model and 7.78 ± 3.20 for the MDA-MB-231 model (Figure 6).
(§2) The animals used in this experiment were provided by the Nuclear and Energy Research Institute (IPEN/CNEN-SP) vivarium. Every effort was made to minimize animal suffering per International Ethical Guidelines. The experimental protocols used in this study were approved by the Scientific Ethics Committee of the IPEN/CNEN-SP. Adult female SCID mice were maintained under controlled environmental conditions (12 h light-dark cycle; constant temperature 21 ± 2 °C), with free access to water and food. Suspensions of cells (5 × 10^6 in 0.1 mL) were subcutaneously injected into the upper back regions of the mice.
(§3) […] Animals were deeply anesthetized and euthanized at the corresponding biodistribution time point. Blood, brain, spleen, heart, stomach, liver, lungs, kidneys, pancreas, muscle, bone, small intestine, and large intestine were collected and weighed. The radioactivity of each organ/tissue was then determined using the above-mentioned automatic gamma counter. The radioactivity was evaluated as the percentage of injected activity per gram of organ/tissue (%IA/g), using the same injected dose activity as a standard. Receptor-blocking studies in tumor models were also carried out by co-administration of 100 μg of cold-conjugated peptide along with radiopeptide.

[2] = Ex vivo biodistribution and blood clearance in healthy Balb/c mice; conditions: for tissue uptake at 5 min / tissue uptake at 0.5 h / tissue uptake at 1 h / tissue uptake at 2 h / tissue uptake at 4 h / tissue uptake at 6 h: mouse, 37 MBq, total radioactivity; for tissue uptake at 5 min: 5 min after IV injection; for tissue uptake at 0.5 h: 30 min after IV injection; for tissue uptake at 1 h: 1 h after IV injection; for tissue uptake at 2 h: 2 h after IV injection; for tissue uptake at 4 h: 4 h after IV injection; for tissue uptake at 6 h: 6 h after IV injection
Protocol: The ex vivo biodistribution analysis performed with healthy Balb/c mice is presented in Figure 2 and Figure 3, and Table 1. Values are expressed as a percentage of injected activity per gram (%IA/g) of tissue and per milliliter (%IA/mL) of blood.
as §3

[3] = Biodistribution in SCID mice bearing MDA-MB-231 xenografts; assay type: in vivo; conditions: female, mouse, total radioactivity; for tissue uptake at 1 h / tissue uptake per volume at 1 h: SCID, MDA-MB231 model, 60 min p.i., 0.1 mL/18.5 MBq IV; for tissue uptake per volume at 1 h: whole blood
Protocol: as §1, §2, §3

[4] = bone, Block with excess cold peptide, n = 3, read-out: Bone uptake
[5] = bone, Non-Block, n = 5, read-out: Bone uptake
[6] = brain, Block with excess cold peptide, n = 3, read-out: Brain uptake
[7] = brain, Non-Block, n = 5, read-out: Brain uptake
[8] = heart, Block with excess cold peptide, n = 3, read-out: Heart uptake
[9] = heart, Non-Block, n = 5, read-out: Heart uptake
[10] = kidneys, Block with excess cold peptide, n = 3, read-out: Kidneys uptake
[11] = kidneys, Non-Block, n = 5, read-out: Kidneys uptake
[12] = large intestine, Block with excess cold peptide, n = 3, read-out: Large Intestine uptake
[13] = large intestine, Non-Block, n = 5, read-out: Large Intestine uptake
[14] = liver, Block with excess cold peptide, n = 3, read-out: Liver uptake
[15] = liver, Non-Block, n = 5, read-out: Liver uptake
[16] = lungs, Block with excess cold peptide, n = 3, read-out: Lungs uptake
[17] = lungs, Non-Block, n = 5, read-out: Lungs uptake
[18] = muscle, Block with excess cold peptide, n = 3, read-out: Muscle uptake
[19] = muscle, Non-Block, n = 5, read-out: Muscle uptake
[20] = pancreas, Block with excess cold peptide, n = 3, read-out: Pancreas uptake
[21] = pancreas, Non-Block, n = 5, read-out: Pancreas uptake
[22] = small intestine, Block with excess cold peptide, n = 3, read-out: Small Intestine uptake
[23] = small intestine, Non-Block, n = 5, read-out: Small Intestine uptake
[24] = spleen, Block with excess cold peptide, n = 3, read-out: Spleen uptake
[25] = spleen, Non-Block, n = 5, read-out: Spleen uptake
[26] = stomach, Block with excess cold peptide, n = 3, read-out: Stomach uptake
[27] = stomach, Non-Block, n = 5, read-out: Stomach uptake
[28] = tumor, Non-Block, n = 5, read-out: Tumor uptake
[29] = Block with excess cold peptide, n = 3
[30] = bone, mean ± SD n = 5, read-out: Bone uptake
[31] = brain, mean ± SD n = 5, read-out: Brain uptake
[32] = heart, mean ± SD n = 5, read-out: Heart uptake
[33] = lung, mean ± SD n = 5, read-out: Lung uptake
[34] = muscle, mean ± SD n = 5, read-out: Muscle uptake
[35] = pancreas, mean ± SD n = 5, read-out: Pancreas uptake
[36] = spleen, mean ± SD n = 5, read-out: Spleen uptake
[37] = stomach, mean ± SD n = 5, read-out: Stomach uptake

## CCCC[C@H](NC(=O)[C@H](CCCNC(=N)N)NC(=O)[C@H](Cc1c[nH]c2ccccc12)NC(=O)[C@H](CSCC(=O)NCCCC[C@@H]1NC(=O)[C@@H](Cc2ccccc2)NC(=O)[C@H](CC(=O)O)NC(=O)CNC(=O)[C@H](CCCNC(=N)N)NC1=O)NC(=O)[C@@H]1CCCN1C(=O)[C@H](CC(N)=O)NC(=O)[C@@H](NC(=O)COCCOCCNC(=O)c1ccc(NN)nc1)[C@@H](C)CC)C(=O)N[C@@H](CCCNC(=N)N)C(=O)N[C@@H](Cc1ccc(O)cc1)C(N)=O [[^99mTc]HYNIC-cRGDfk-NPY, metal not drawn]
[1]; [4]
  tissue uptake at 1 h: 1.08 ± 0.77 %ID/g
[1]; [5]
  tissue uptake at 1 h: 1.4 ± 0.72 %ID/g
[1]; [6]
  tissue uptake at 1 h: 0.08 ± 0.01 %ID/g
[1]; [7]
  tissue uptake at 1 h: 0.16 ± 0.06 %ID/g
[1]; [8]
  tissue uptake at 1 h: 0.65 ± 0.24 %ID/g
[1]; [9]
  tissue uptake at 1 h: 1.53 ± 0.45 %ID/g
[1]; [10]
  tissue uptake at 1 h: 20.8 ± 7.02 %ID/g
[1]; [11]
  tissue uptake at 1 h: 24.6 ± 8.6 %ID/g
[1]; [12]
  tissue uptake at 1 h: 3.91 ± 2.11 %ID/g
[1]; [13]
  tissue uptake at 1 h: 6.41 ± 1.63 %ID/g
[1]; [14]
  tissue uptake at 1 h: 1.84 ± 0.13 %ID/g
[1]; [15]
  tissue uptake at 1 h: 3.61 ± 0.73 %ID/g
[1]; [16]
  tissue uptake at 1 h: 1.59 ± 0.34 %ID/g
[1]; [17]
  tissue uptake at 1 h: 3.58 ± 1.22 %ID/g
[1]; [18]
  tissue uptake at 1 h: 0.59 ± 0.37 %ID/g
[1]; [19]
  tissue uptake at 1 h: 1.56 ± 1.41 %ID/g
[1]; [20]
  tissue uptake at 1 h: 1.12 ± 0.42 %ID/g
[1]; [21]
  tissue uptake at 1 h: 1.62 ± 0.3 %ID/g
[1]; [22]
  tissue uptake at 1 h: 3.77 ± 0.95 %ID/g
[1]; [23]
  tissue uptake at 1 h: 10.3 ± 2.18 %ID/g
[1]; [24]
  tissue uptake at 1 h: 2.53 ± 0.74 %ID/g
[1]; [25]
  tissue uptake at 1 h: 5.33 ± 1.88 %ID/g
[1]; [26]
  tissue uptake at 1 h: 2.98 ± 0.57 %ID/g
[1]; [27]
  tissue uptake at 1 h: 6.04 ± 1.15 %ID/g
[1]; tumor, Block with excess cold peptide, n = 3, p > 0.05 vs non-block, read-out: Tumor uptake
  tissue uptake at 1 h: 4.41 ± 2.13 %ID/g
[1]; [28]
  tissue uptake at 1 h: 9.3 ± 3.25 %ID/g
[1]; [29]
  tissue uptake per volume at 1 h: 0.92 ± 0.07 %ID/mL
[1]; Non-Block, n = 5
  tissue uptake per volume at 1 h: 1.66 ± 0.89 %ID/mL
[1]; tumor and muscle, 37 MBq, MCF-7 tumor-bearing SCID mice, 1 h after IV injection, n = 5
  tissue to tissue ratio at 1 h: 5.65 ± 0.94
[2]; IV, 0.05 mL/18.5 MBq, exponential decay fit of %IA/mL
  Blood half-life: 23.04 min
[2]; IV, within 1 h
  decrease in blood activity: approximately 90%
[2]; from low brain uptake
  crossing of blood-brain barrier: did not cross the blood–brain barrier
[2]; [30]
  tissue uptake at 5 min: 3.19 ± 0.76 %ID/g
  tissue uptake at 0.5 h: 3.71 ± 1.37 %ID/g
  tissue uptake at 1 h: 2.52 ± 1.67 %ID/g
  tissue uptake at 2 h: 0.71 ± 0.22 %ID/g
  tissue uptake at 4 h: 0.46 ± 0.14 %ID/g
  tissue uptake at 6 h: 0.54 ± 0.28 %ID/g
[2]; [31]
  tissue uptake at 5 min: 0.37 ± 0.11 %ID/g
  tissue uptake at 0.5 h: 0.22 ± 0.15 %ID/g
  tissue uptake at 1 h: 0.12 ± 0.03 %ID/g
  tissue uptake at 2 h: 0.07 ± 0.01 %ID/g
  tissue uptake at 4 h: 0.04 ± 0.01 %ID/g
  tissue uptake at 6 h: 0.04 ± 0.01 %ID/g
[2]; [32]
  tissue uptake at 5 min: 4.3 ± 1.32 %ID/g
  tissue uptake at 0.5 h: 3.21 ± 1.22 %ID/g
  tissue uptake at 1 h: 1.04 ± 0.23 %ID/g
  tissue uptake at 2 h: 0.55 ± 0.07 %ID/g
  tissue uptake at 4 h: 0.35 ± 0.12 %ID/g
  tissue uptake at 6 h: 0.33 ± 0.09 %ID/g
[2]; [33]
  tissue uptake at 5 min: 9.8 ± 3.16 %ID/g
  tissue uptake at 0.5 h: 4.8 ± 2.67 %ID/g
  tissue uptake at 1 h: 2.64 ± 0.83 %ID/g
  tissue uptake at 2 h: 1.17 ± 0.2 %ID/g
  tissue uptake at 4 h: 0.63 ± 0.17 %ID/g
  tissue uptake at 6 h: 1.65 ± 2.02 %ID/g
[2]; [34]
  tissue uptake at 5 min: 2.16 ± 0.62 %ID/g
  tissue uptake at 0.5 h: 1.5 ± 0.41 %ID/g
  tissue uptake at 1 h: 0.68 ± 0.33 %ID/g
  tissue uptake at 2 h: 0.39 ± 0.09 %ID/g
  tissue uptake at 4 h: 0.22 ± 0.07 %ID/g
  tissue uptake at 6 h: 0.21 ± 0.03 %ID/g
[2]; [35]
  tissue uptake at 5 min: 3.39 ± 0.92 %ID/g
  tissue uptake at 0.5 h: 2.52 ± 0.89 %ID/g
  tissue uptake at 1 h: 1.17 ± 0.45 %ID/g
  tissue uptake at 2 h: 0.53 ± 0.1 %ID/g
  tissue uptake at 4 h: 0.35 ± 0.12 %ID/g
  tissue uptake at 6 h: 0.34 ± 0.11 %ID/g
[2]; [36]
  tissue uptake at 5 min: 6.06 ± 2.9 %ID/g
  tissue uptake at 0.5 h: 6.14 ± 2.29 %ID/g
  tissue uptake at 1 h: 3.41 ± 1.17 %ID/g
  tissue uptake at 2 h: 2.22 ± 0.37 %ID/g
  tissue uptake at 4 h: 1.69 ± 0.34 %ID/g
  tissue uptake at 6 h: 1.98 ± 0.63 %ID/g
[2]; [37]
  tissue uptake at 5 min: 8.05 ± 2.56 %ID/g
  tissue uptake at 0.5 h: 7.17 ± 1.38 %ID/g
  tissue uptake at 1 h: 3.97 ± 0.78 %ID/g
  tissue uptake at 2 h: 2.62 ± 0.68 %ID/g
  tissue uptake at 4 h: 1.81 ± 0.5 %ID/g
  tissue uptake at 6 h: 1.79 ± 0.58 %ID/g
[3]; [4]
  tissue uptake at 1 h: 0.53 ± 0.16 %ID/g
[3]; [5]
  tissue uptake at 1 h: 1.22 ± 0.28 %ID/g
[3]; [6]
  tissue uptake at 1 h: 0.09 ± 0.01 %ID/g
[3]; [7]
  tissue uptake at 1 h: 0.18 ± 0.04 %ID/g
[3]; [8]
  tissue uptake at 1 h: 0.74 ± 0.2 %ID/g
[3]; [9]
  tissue uptake at 1 h: 1.48 ± 0.29 %ID/g
[3]; [10]
  tissue uptake at 1 h: 13 ± 2.68 %ID/g
[3]; [11]
  tissue uptake at 1 h: 19.3 ± 2.89 %ID/g
[3]; [12]
  tissue uptake at 1 h: 2.22 ± 0.98 %ID/g
[3]; [13]
  tissue uptake at 1 h: 5.18 ± 0.87 %ID/g
[3]; [14]
  tissue uptake at 1 h: 1.41 ± 0.62 %ID/g
[3]; [15]
  tissue uptake at 1 h: 3.75 ± 0.51 %ID/g
[3]; [16]
  tissue uptake at 1 h: 1.95 ± 0.6 %ID/g
[3]; [17]
  tissue uptake at 1 h: 3.27 ± 0.47 %ID/g
[3]; [18]
  tissue uptake at 1 h: 0.33 ± 0.02 %ID/g
[3]; [19]
  tissue uptake at 1 h: 0.88 ± 0.13 %ID/g
[3]; [20]
  tissue uptake at 1 h: 0.7 ± 0.21 %ID/g
[3]; [21]
  tissue uptake at 1 h: 1.35 ± 0.35 %ID/g
[3]; [22]
  tissue uptake at 1 h: 2.16 ± 0.74 %ID/g
[3]; [23]
  tissue uptake at 1 h: 8.3 ± 1.36 %ID/g
[3]; [24]
  tissue uptake at 1 h: 1.51 ± 0.22 %ID/g
[3]; [25]
  tissue uptake at 1 h: 5.02 ± 0.63 %ID/g
[3]; [26]
  tissue uptake at 1 h: 2.05 ± 0.33 %ID/g
[3]; [27]
  tissue uptake at 1 h: 5.63 ± 0.96 %ID/g
[3]; tumor, Block with excess cold peptide, n = 3, p < 0.05 vs non-block, read-out: Tumor uptake
  tissue uptake at 1 h: 2.3 ± 0.41 %ID/g
[3]; [28]
  tissue uptake at 1 h: 4.93 ± 1.01 %ID/g
[3]; [29]
  tissue uptake per volume at 1 h: 1.4 ± 0.21 %ID/mL
[3]; Non-Block, n = 5
  tissue uptake per volume at 1 h: 1.8 ± 1.03 %ID/mL
[3]; tumor and muscle, 37 MBq, MDA-MB-231 tumor-bearing SCID mice, 1 h after IV injection, n = 5
  tissue to tissue ratio at 1 h: 7.78 ± 3.2
